# Laboratory results taken from publication PMC11582070, “Template-assisted covalent modification underlies activity of covalent molecular glues” (Nature Chemical Biology, 2023).
# Molecular target: recombinant BRD4BD2 (residues 368-440) (human) (UniProt O60885)
# Sequence of GAK_(14–351)-HA (O14976 14-351): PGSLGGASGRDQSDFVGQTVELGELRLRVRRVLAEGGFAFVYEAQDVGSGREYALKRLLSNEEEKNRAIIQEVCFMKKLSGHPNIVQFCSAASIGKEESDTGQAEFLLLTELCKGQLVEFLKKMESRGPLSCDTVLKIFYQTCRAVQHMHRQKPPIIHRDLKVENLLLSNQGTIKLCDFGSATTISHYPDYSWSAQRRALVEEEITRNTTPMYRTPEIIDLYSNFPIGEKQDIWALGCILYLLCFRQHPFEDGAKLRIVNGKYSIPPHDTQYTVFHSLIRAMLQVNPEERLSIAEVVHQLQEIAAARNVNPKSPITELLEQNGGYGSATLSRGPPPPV
substance,measurement,value
GAK_(14–351)-HA (from UniProt O14976 14-351) (domain or fragment),"intact protein mass spectrometry: MMH2 adduct on recombinant GAK 14-351 with BRD4BD2 present, 4 °C 16 h (approximately 2% without BRD4BD2)",22%
same,"intact protein mass spectrometry: TMX1 adduct on recombinant GAK 14-351 with BRD4BD2 present, 4 °C 16 h (none detectable without BRD4BD2)",5%
